# B1: unmethylated FokI substrate (dsDNA)
# DNA 1: CTAGAGTCAGAATTCGAAGACTTGCCGGATGATCTGCAGGCCAGCTGTGGCGTCTAAATTGA
# DNA 2: AGCTTCAATTTAGACGCCACAGCTGGCCTGCAGATCATCCGGCAAGTCTTCGAATTCTGACT
# How the values were obtained:
# [1] = target: FokI endonuclease wild-type (Flavobacterium okeanokoites, UniProt P14870 P14870:2-579); assay: filter; with poly(dI-dC), 1 mM EDTA, 50 mM NaCl, 22 C; values only in figure; settings: tags: expressed in E. coli RR1 from pRRSfokIR; label: 32P
# Method: (§1) The filter binding assays were performed in duplicate using *Fok*I or mutant enzymes and the four different synthetic substrates, SEQ ID NO:12, SEQ ID NO:13, hemi-methylated oligonucleotide of SEQ ID NO:12 and hemi-methylated oligonucleotide of SEQ ID NO:13. Nine different concentrations for each of the enzymes were made by serial dilutions ([…], 2000, 667, 222, 74.1, 24.7, 8.23, 2.74 and 0.914 nM). The enzymes were mixed with 40 nM of each labelled substrate along with 50 μg/ml p(dI-dC) and 50 μg/ml BSA in 50 μl of buffer A[10 mM Tris. phosphate (pH 8.0), 7 mM 2-mercaptoethanol, 1 mM EDTA, 50 mM NaCl, and 10% (vol/vol) glycerol]. The samples were incubated at 22° C. for 1 hr and then loaded on to nitrocellulose filters. The filters were washed twice with 0.5 ml of buffer A, dried and counted using the scintillation counter.
# (§2) Why does the four amino-acid residue insertions enable the mutant enzymes to cleave hemi-methylated DNA and not the larger inserts? The four codon insertions could increase the affinity of the mutants for the hemi-methylated DNA. The binding affinities of wild-type enzyme and both four codon insertion mutants were compared by filter binding assays using the synthetic oligonucleotide substrates (FIGS. 9A, 9B and 9C). The binding affinities were measured in the presence of non-specific DNA, poly dI-dC.
# [2] = target: FokI TAEL (+4) insertion mutant (Flavobacterium okeanokoites, UniProt P14870 P14870:2-579, insertion of TAEL after QLV in linker (linker SEQ 21)); assay: filter; similar to wild-type; settings: label: 32P
# Method: as §1, §2
# FokI TAEL (+4) insertion mutant, sequence (P14870 other isoform, or with tags, fused parts or gaps with the stated changes): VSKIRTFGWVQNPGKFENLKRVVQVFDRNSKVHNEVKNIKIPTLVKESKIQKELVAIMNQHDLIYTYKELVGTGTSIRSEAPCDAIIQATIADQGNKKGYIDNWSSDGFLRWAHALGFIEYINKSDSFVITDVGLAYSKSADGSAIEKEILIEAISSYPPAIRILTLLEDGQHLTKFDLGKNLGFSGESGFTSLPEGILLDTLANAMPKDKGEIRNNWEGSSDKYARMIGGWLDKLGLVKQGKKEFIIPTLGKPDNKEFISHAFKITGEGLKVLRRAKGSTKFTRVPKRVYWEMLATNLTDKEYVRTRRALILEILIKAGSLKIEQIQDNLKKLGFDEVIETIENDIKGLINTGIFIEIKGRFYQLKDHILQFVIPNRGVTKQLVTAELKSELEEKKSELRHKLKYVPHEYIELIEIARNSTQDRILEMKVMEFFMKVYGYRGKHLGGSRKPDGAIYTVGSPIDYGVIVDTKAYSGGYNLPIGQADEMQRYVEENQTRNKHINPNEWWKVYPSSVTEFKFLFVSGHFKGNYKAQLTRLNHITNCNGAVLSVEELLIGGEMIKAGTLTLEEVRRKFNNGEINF
# FokI endonuclease wild-type, sequence (P14870 2-579, one chain of several): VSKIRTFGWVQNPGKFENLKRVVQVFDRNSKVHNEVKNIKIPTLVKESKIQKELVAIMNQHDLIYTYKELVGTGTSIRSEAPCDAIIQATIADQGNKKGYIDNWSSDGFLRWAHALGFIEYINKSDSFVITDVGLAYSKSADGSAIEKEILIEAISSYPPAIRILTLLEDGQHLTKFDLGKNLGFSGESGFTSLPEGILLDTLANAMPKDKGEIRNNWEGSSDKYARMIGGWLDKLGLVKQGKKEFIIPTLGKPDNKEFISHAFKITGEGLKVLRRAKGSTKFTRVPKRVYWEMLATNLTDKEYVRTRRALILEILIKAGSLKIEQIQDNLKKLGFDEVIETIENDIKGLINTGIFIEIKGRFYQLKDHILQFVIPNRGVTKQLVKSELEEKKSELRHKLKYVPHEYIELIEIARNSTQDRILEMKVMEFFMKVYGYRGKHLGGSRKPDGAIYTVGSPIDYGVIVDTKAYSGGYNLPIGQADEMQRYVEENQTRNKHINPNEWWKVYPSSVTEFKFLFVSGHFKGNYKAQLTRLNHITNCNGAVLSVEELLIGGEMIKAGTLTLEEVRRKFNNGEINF
binder,measurement,setting,value
B1,binding result,[1],binds
same,binding result,[2],binds
